Article PMC2668526 (Bioorganic & medicinal chemistry, 2008)
Where “and” joins values, the source holds several entries; their conditions need not be identical. Equal values may be shown once.

How the values were obtained:
Assay in all cases: purified protein, by the assay type
Details in all cases: other: O2 consumption, 5.0 mM ascorbate, pH 6.0, 37 °C
[1] = substrate: CC(C)(C)OC(=O)NCC(=O)NCC(=O)O
[2] = substrate: CC(C)(C)OC(=O)NCC(=O)O
[3] = substrate: CCc1ccc(C(=O)NCC(=O)O)cc1
[4] = substrate: COc1ccc(C(=O)NCC(=O)O)cc1
[5] = substrate: C[C@@H](NC(=O)OCc1ccccc1)C(=O)O
[6] = substrate: C[C@@H](NC(=O)c1ccccc1)C(=O)O
[7] = substrate: Cc1cccc(C(=O)NCC(=O)O)c1
[8] = substrate: Cc1ccccc1C(=O)NCC(=O)O
[9] = substrate: Nc1ccc(C(=O)NCC(=O)O)cc1
[10] = substrate: O=C(O)CNC(=O)/C=C/c1ccco1
[11] = substrate: O=C(O)CNC(=O)C1CC1c1ccccc1
[12] = substrate: O=C(O)CNC(=O)CCCCCc1ccccc1
[13] = substrate: O=C(O)CNC(=O)CCCCc1ccccc1
[14] = substrate: O=C(O)CNC(=O)CNC(=O)c1ccc([N+](=O)[O-])cc1
[15] = substrate: O=C(O)CNC(=O)CNC(=O)c1ccccc1
[16] = substrate: O=C(O)CNC(=O)CSc1ccccc1
[17] = substrate: O=C(O)CNC(=O)Cc1ccccc1
[18] = substrate: O=C(O)CNC(=O)OCc1ccccc1
[19] = substrate: O=C(O)CNC(=O)SCc1ccccc1
[20] = substrate: O=C(O)CNC(=O)[C@@H]1CCC(=O)N1
[21] = substrate: O=C(O)CNC(=O)c1ccc(Br)cc1
[22] = substrate: O=C(O)CNC(=O)c1ccc(Cl)cc1
[23] = substrate: O=C(O)CNC(=O)c1cccc(Cl)c1
[24] = substrate: O=C(O)CNC(=O)c1ccccc1I
[25] = substrate: O=C(O)CNC(=O)c1ccccc1O
[26] = substrate: O=C(O)CNC(=O)c1cccs1
[27] = substrate: O=C(O)CNC(=S)Cc1ccccc1

B1: rat PAM (Rattus norvegicus) (protein)
chain: FKETTRSFSNECLGTIGPVTPLDASDFALDIRMPGVTPKESDTYFCMSMRLPVDEEAFVIDFKPRASMDTVHHMLLFGCNMPSSTGSYWFCDEGTCTDKANILYAWARNAPPTRLPKGVGFRVGGETGSKYFVLQVHYGDISAFRDNHKDCSGVSVHLTRVPQPLIAGMYLMMSVDTVIPPGEKVVNADISCQYKMYPMHVFAYRVHTHHLGKVVSGYRVRNGQWTLIGRQNPQLPQAFYPVEHPVDVTFGDILAARCVFTGEGRTEATHIGGTSSDEMCNLYIMYYMEAKYALSFMTCTKNVAPDMFRTIPAEANIPIPVKPDMVMMHGHHKEAENKEKSALMQQPKQGEEEVLEQDFHVEEELDWPGVYLLPGQVSGVALDSKNNLVIFHRGDHVWDGNSFDSKFVYQQRGLGPIEEDTILVIDPNNAEILQSSGKNLFYLPHGLSIDTDGNYWVTDVALHQVFKLDPHSKEGPLLILGRSMQPGSDQNHFCQPTDVAVEPSTGAVFVSDGYCNSRIVQFSPSGKFVTQWGEESSGSSPRPGQFSVPHSLALVPHLDQLCVADRENGRIQCFKTDTKEFVREIKHASFGRNVFAISYIPGFLFAVNGKPYFGDQEPVQGFVMNFSSGEIIDVFKPVRKHFDMPHDIVASEDGTVYIGDAHTNTVWKFTLTEKMEHRSV
- Km [1]: 300 ± 30 µM
- kcat [1]: 7.5 ± 0.2 s⁻¹
- kcat/Km [1]: 25000 ± 1000 M⁻¹ s⁻¹
- Km [2]: 3700 ± 200 µM
- kcat [2]: 6.3 ± 0.3 s⁻¹
- kcat/Km [2]: 1700 ± 50 M⁻¹ s⁻¹
- Km [3]: 1200 ± 200 µM
- kcat [3]: 3.6 ± 0.3 s⁻¹
- kcat/Km [3]: 3100 ± 500 M⁻¹ s⁻¹
- Km [4]: 820 ± 40 µM
- kcat [4]: 5.3 ± 0.08 s⁻¹
- kcat/Km [4]: 6400 ± 200 M⁻¹ s⁻¹
- Km [5]: 35000 ± 5000 µM
- kcat [5]: 1.4 ± 0.1 s⁻¹
- kcat/Km [5]: 41 ± 5 M⁻¹ s⁻¹
- Km [6]: 84000 ± 23000 µM
- kcat [6]: 0.27 ± 0.03 s⁻¹
- kcat/Km [6]: 3.2 ± 0.6 M⁻¹ s⁻¹
- Km [7]: 1400 ± 100 µM
- kcat [7]: 6.4 ± 0.2 s⁻¹
- kcat/Km [7]: 4700 ± 200 M⁻¹ s⁻¹
- Km [8]: 4300 ± 300 µM
- kcat [8]: 7.9 ± 0.3 s⁻¹
- kcat/Km [8]: 1800 ± 40 M⁻¹ s⁻¹
- Km [9]: 2600 ± 200 µM
- kcat [9]: 5.6 ± 0.2 s⁻¹
- kcat/Km [9]: 2200 ± 100 M⁻¹ s⁻¹
- Km [10]: 1200 ± 100 µM
- kcat [10]: 3.4 ± 0.1 s⁻¹
- kcat/Km [10]: 2800 ± 100 M⁻¹ s⁻¹
- Km [11]: 900 ± 70 µM
- kcat [11]: 10 ± 0.3 s⁻¹
- kcat/Km [11]: 11000 ± 700 M⁻¹ s⁻¹
- Km [12]: 0.051 ± 0.007 0.043 ± 0.005 mM
- kcat [12]: 11 ± 0.4 s⁻¹
- kcat/Km [12]: 200000 ± 20000 M⁻¹ s⁻¹
- kcat [13]: 12 ± 0.4 s⁻¹
- kcat/Km [13]: 76000 ± 4000 M⁻¹ s⁻¹
- Km [14]: 110 ± 7 µM
- kcat [14]: 8.7 ± 0.2 s⁻¹
- kcat/Km [14]: 76000 ± 4000 M⁻¹ s⁻¹
- Km [15]: 78 ± 11 µM
- kcat [15]: 12 ± 0.8 s⁻¹
- kcat/Km [15]: 160000 ± 10000 M⁻¹ s⁻¹
- Km [16]: 190 ± 20 µM
- kcat [16]: 4.6 ± 0.2 s⁻¹
- kcat/Km [16]: 25000 ± 1000 M⁻¹ s⁻¹
- Km [17]: 160 ± 5 µM
- kcat [17]: 7.4 s⁻¹
- kcat/Km [17]: 46000 M⁻¹ s⁻¹
- Km [18]: 590 ± 20 µM
- Km [19]: 59 ± 7 µM
- kcat [19]: 0.69 ± 0.022 s⁻¹
- kcat/Km [19]: 12000 ± 1400 M⁻¹ s⁻¹
- Km [20]: 300 µM and 310 ± 30 µM
- Km [21]: 520 ± 60 µM
- kcat/Km [21]: 4900 ± 400 M⁻¹ s⁻¹
- Km [22]: 620 ± 40 µM
- kcat [22]: 4.1 ± 0.1 s⁻¹
- kcat/Km [22]: 6600 ± 200 M⁻¹ s⁻¹
- Km [23]: 2200 ± 200 µM
- kcat [23]: 7.8 ± 0.3 s⁻¹
- kcat/Km [23]: 3600 ± 200 M⁻¹ s⁻¹
- Km [24]: 3400 ± 400 µM
- kcat [24]: 3.1 ± 0.1 s⁻¹
- kcat/Km [24]: 910 ± 70 M⁻¹ s⁻¹
- kcat [25]: 4.9 ± 0.05 s⁻¹
- kcat/Km [25]: 7100 ± 100 M⁻¹ s⁻¹
- Km [26]: 1600 ± 100 µM
- kcat/Km [26]: 6000 ± 300 M⁻¹ s⁻¹
- Km [27]: 24 ± 5 µM
- kcat [27]: 2.4 ± 0.2 s⁻¹
- kcat/Km [27]: 100000 ± 20000 M⁻¹ s⁻¹
